Experiment: yeast display, Sf9 membrane polyspecificity reagent, FACS + sequencing; frameworks hold sequencing errors
How it was run: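 After 36–48 hours of galactose induction, yeast (Saccharomyces cerevisiae BJ5465) displaying a synthetic nanobody library were stained at 4 °C for 1 hour with 10% biotinylated, detergent-solubilized Sf9 membrane reagent. Streptavidin microbeads enriched the stained cells before FACS sorting into low and high (top ~1%) gates on anti-HA and streptavidin fluorescence. Each clone's polyreactivity label reflects its gate of origin.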

Sequence | polyreactivity (PSR sort gate)
QVQHVESGGGKVQAGGSLRLSCASSGFTIMSYAMGWYRQAPGKERELVAAISRSGGSTYYADSVKGRFTISRDKAKNTVYLQMISLKPEDTAVYYCAARSAFRKQFSRNNYWGQGSQVTVSS | high polyreactivity
QFHLVESGGGLVQAGGSLRLSCSASGLTFYQNSLGWSRQAPGKEMELVAAIRWGGGSTYYADSVKGRFTISRDNAKNTVYLQMNCLKPVDTAVYYCAAEYYGWPYDYWGQGTQVTVSS | high polyreactivity
QVQLVESGGGLVQAGGSLRLSCAASGIIFYKYSMGWYRQAPGKERELVAAITSGGGRTYYADSVKGRFTISRDNAKITVDLQMNSLKPEDTAVYYCAATRPATYAAYDYWGQGTQVTVSS | high polyreactivity
QVQLVESGGGLVQAGGSLRLSCAASGRIFYYNDLGWYRQAPGKERELVAAISGSGGSTYYADSVKGRFTISRDNAKNTVYLQMNSLKPEDTAVYYCSYYYWGQGTQVTVSS | low polyreactivity
QVQLVESCGGLVQAGCSLRLSCAASGSIFDGNAMGWYRQAPGKERDLVAVISSRGTRTYYADSVKGRFTISRDNAKITVYLQMNSLKPEDTAVYYFNTRTSDLNGSGDYWGQGTQVTVSS | high polyreactivity
QVQLVESGGGLVQAGGSLRLSCAASGSTFAVNAMRSYRQAPGKEREFVAAISFGTGSTYYADSVKGRFTISRDNAKKTVYLQMNSLKPEDTAVYYCNAEASGYYWWWGYDYWGQGTQVTVSS | low polyreactivity
QVQLVESGGGLVQAGGSLRLSCAASGFTFTGYAMGWYRQAPGKERELVAVISSRGGSTYYADSVKGRFTISRDNAKNTVYLQMNSLKPEDTAVYYCAARGYKGFSSPFGYWGQGTQVTVSS | high polyreactivity
QVQLVESGGGLVQAGGSLRLSCAASGSIIGIYAMGWYRQAPGKERELVAAISWSGGSTYYADSVKGRFTISRDNAKNTVYLQMNSLKPEDTAVYYCNAYPAYLDDYWGQGTQVTVSS | low polyreactivity
QVQLVESGGGLVQAGGSLRLSCAASGFIIGRNAMGWYRQAPGKERELVAAMSTSGASTYYADSVKGRFTISRDNAKNTVYFQMNSLKPEDTAVYYCAARRPVWDGRGSGYDYWGQGTQVTVSS | low polyreactivity
QVHLVESGGGLVQAGGSLRLSCAASGSTFYRYAMGWYRQAPGKEREFVASISKRGGSTYYADSVKGRFTISRDNAKNTVYLQMISLKPEETAVYYCAADPKFFSGSYLYGYWGQGTQVTVSS | high polyreactivity
QVQLVESGGGLVQAGGSLRLSCAASGSILFNNAMGWYRQAPGKEWELVAAMGANGGNTYYADSVKGRFTISCDNATNTVYLQMTSLKPEDTAVYYCSADKTLYGGGAWTRWFHYTYGYWGQGTQVTVSS | high polyreactivity
QVQLVESGGGLVQAGGSLRLSCAASGRTFAAYAMGWYRQAPGKERELGAAISIGGSTNYADSVKGRFTISRDNAKNTVYLQMNSLKPEDSAVYYCAAPWYRGGTTESYYWGQGTQVTVSS | high polyreactivity
QVQLVESGGGLDQAGGSIRLSCAASGGTFKANAMGWYRQAPGKEREVVAAIRQTGGSTYYADSVKGRFTISRDNEKNTVYLQMNSLKPEDTAVYYCAAQSHRYWIYDYWGQCTQVTVSS | high polyreactivity
QVQLVESGGGLVQAGGSLRLSCAASGSIFVHYAMGWYIQEPGKERELVARISWRGNTYYADSVKGRFTISRDNAKNTVYLQMNSLKPEDTAVYYCAKDVRRSLVNWDVVYPHGYWGQGTQVTVSS | low polyreactivity
QVQLVESGGGLVQAGGSLRLSCAASGSTLRRNAMGWYRQAPGKERELVAAISGTGGSTYYADSVKGRFTISRDNAKNTVYLQMYSLKPEDTAVYYCAATGWYYDYDYWGQGTQVTVSS | low polyreactivity
QVQLVESGGGLVQAGGSLRLSCAASGSTFGHYGMGWYRQAPGKERELVAAISYSGGSTSYADSVKGRFTISRDNAKNTVYLQMNSLKPEDTAVYYCATVRKRRYDYWGQGTQVTVSS | low polyreactivity
QVQLVESGGGLVQAGGSLRLSCAASGRIFGPYTKGWYRQAPGKERQLVAAISCSGGSTYYADSVKGRFTISRDNAKNTVYLQMNSLKPEDTAVSYCKADHPFPQYEGGSSGQGTQVTVSS | low polyreactivity
QVQLVESGGGLVQAGGSLRLSCAASGSIFIYYAMGWYRQAPGKEREMVADITFSAGTNTYYADSVKGRFTISRDNAKNTVYLQKNSLKPEDTAVYYCNADRGFIGSITEYDYWGQGTQVTVSS | low polyreactivity
QVQLVESGGGLVQAGGSPRLSCAASGRTFAEYPMGWYRQAPGKERELVAGISWSGGSTYYADSVKGRFTISRDTAKNTVYLQMNSMKPDDTAVYYCAARGWKRGYYIGHYYYWGQGTQVTVSS | low polyreactivity
QVQLVESGGGLVQAGGSLRLSCAASGFIFYKNAMGWYRQAAGKERELVASITRTGDSTNYADSVKGRFTISRDNPKNTVYLQLNSLKPEDTAVYYCAKVLRRWPDPAGGMDYWGQGTQVTVSS | high polyreactivity
QVQLVESGGGLVQAGGSLRLSCAASGSIFHGYGMGWYRPAPGKERELVASITWIGGDTYYADSVKGRFTISRDNAKNTVYLQMNSLKPEDTAVYYCNAEWVVTYIYDYWGQGTQVTVSS | low polyreactivity
QVQLVESGGGLVQAGGSLRLSCAASGRIFRYYAMGWYRQAPGKEREFVAAITYIGGSTYYADSVKGRFTISRDNAKNTVYLQMNSLKPEDTAVYWGQGTQVTVSS | low polyreactivity

Sequence | polyreactivity (PSR sort gate)
QVQLVESGGGLVQAGGSLRLSCAASGSIFVKNAMGWYRPAPGKEREFVAAITTSGGSTNYADSVKGRFTISRDNAKNTVYLQMTSLKPEDTAVYYCNTDIFPAAYDYWVQGTQVTVSS | low polyreactivity
QVQLVESGGGLVQAGGSLRLSCAASGSIFSVNAMGWYRQAPGKETELVAGITISGGRTYYADSVKGRFTISRDNAKNTVYLQLNSLKPEDNAVYYCAADWVYPPGLKDSVHFGEYDYWGEGTQVTVSS | low polyreactivity
QVHLVESGGGLVQAGGSLRLSCAASGSIFGYNTMGWYRQAPGKERELVAAISYSSGSTHYADSVKGRFTISRVNAKNTVYLQMNSLKPEDTAVYYSTSVRRWSFGYWGQGTQVTVSS | low polyreactivity
QVQLVESGGGLVQAGGSLRLICAASGSIFDKYARGWYRQEPGKERELVAAIDSGDTYYADSVKGRFTISRDNAKNTVYLQMNSLKPEDTAVYYCAADDVQYEYDYWGQGTQVTVSS | low polyreactivity
QVKLVESGGGLVQAGGSLRLTCAASGRTFARYAMGWSRQEPGKERELVAAISRRGTSTYYADSVKGRFTISRDNAKNTVYLQMNSLKPEDTAVYYCAVDPYLGHYDYWGQGTQVTVSS | high polyreactivity
QVQLVESVGGLVQAGGSLRLSCADSGSIFAANAIGWFRQAPGKERELVAAISRSGNTYYADSVKGRFTISRDNAKNTVYLQMNSLKPEDTAVYYCAARRYAYGRTYGYWGQGTQVTVSS | high polyreactivity
QGQLVESGGGLVQAGGSLRLSCAASGSIFLTNAMGWYRQAPGKEREFVAAIDWGGTITYYADSVKGRFTISRDNAKNTVYLQMNSLKPEDTAVYYCNRVFPPTDYEFDSWGQGTQGTVSS | low polyreactivity
QVQLVEPGGGLVHAGGSLRLSCAASGRIYYVYAMGWYRQAPGKERELVAGIRSGGSTNYADSVKGRFTISRDNAKNTVYLQMNSLNPEDTAVYYCAVQSYGALSPQLVYRRYDYWGQGTQVTVSS | high polyreactivity
QVQLQESGGGLVQAGGSLRLSSAASGSISSRDAMGWYRQAPGKEREFVATIASGTTTYYADSVKGSFTISRDNAENTVYLQTNSLKPEDTAVYYCAAPTIQIYPFYYWGQGTQVTVSS | high polyreactivity
QVQLVESGGGLVQAGGSLRLSCAASGSIFLVNAMGWYRQAPGKERELVASITWRGGRTYYADSVKGRFTISRDNAKNTVYLEMNSLKPEDTAVYYCAARNYRTGERLRYDYWGQGTQVTVSS | low polyreactivity
QVQLVESGGGLVQAGGSLRLSCAASGRTFTYNAMGWYRQAPGKERELVASIRRSGTITYYADSVKGRFTISRDNAKNTVYLQMNSLKPEDTAVYYCAARYPWYRYYSWGQGTQVTVSS | high polyreactivity
QVQLVESGGGLVQAGGSLRLSCAASGFTFWTYAMGWYRQAPGKERELVAAIDSGGSTYYADSVKGRFTISRDNAKNTVFLQMNSLKPEDTAVYYCIAGPSVTSGYDYDYWGQGTQVTVSS | low polyreactivity
QVQLVESGGGLVQAGGSLRLSCAASGSIFYIYAMGWYRQAPGKERELVATISHRGGSTYYADSVKGRFTISRDNAKNTVYLQMNSLKPEDTAVYYCAARSYYSWGRPLPSFNYWGQGTQVTVSS | high polyreactivity
QVQLVESGGGLVQAGGSLRLSCAATGSTFIFYAMGWYRQAPGKERELVAAISWSGGSTYYADSVKGRFTISRDNAKNTVYLQMNSLKPEDTAVYYCNARWSSWYIHSHYYYWGQGTQVTVSS | high polyreactivity
HVQLKESGGGLVQAGGSLRLSCAASGSIFKVVDMGLYRKAPAKEREFVANIGEGCNTYYADSVKGRFTISRDNAKNTVYLQMNSLKPEDTAVYFYAFVLGTSYRYTYWGQGTLVTVSS | low polyreactivity
QVQLVESGGGLVQAGGSLRLSCAASGSTSQTYTMGWYRQAPGKERELVAAISLRGGRTYYADSVKGRFTISRDNAKNTVYLQMNSLKPEDTAVYYCNRDYRGPYYYWGQGTQVTVSS | high polyreactivity
QVQLVESGGGLVQAGGSLRLICAASGIILFYAMGWYRQAPGKERELVAAISSGGGTSYADSVKGRFTLSRDNAKKTVYLQMNSLKPEDTAVYYCAKTDGFYRGDGYWGQGTQVNVSS | low polyreactivity
QVQLVESGGGLVQAGGSLRLSCAASGRIFRVYAMGWSRQAPGKERELVAAIRWTGGSTYYADSVKGRFKISRDNAKNTVYIQIHSLKAEDTAVSYCAAGRYYSDGSRTIYDYWGQGTQVTGSS | high polyreactivity
QVQLVESGGGLVQAGGSLRLSCAASGSIFLVNARGWYRQAPAKERELVASITWRGGRTYYADSVKGRFTISRDNAKNTDYLQMNSLKPEDTAVYYCAARNYRTGERLRYDYWGQGTQVTVSS | low polyreactivity
QVQLVESGGGLVQAGGSLRLSCAASGRTFAKYAMGWYRQAPGKERELVAAITRGDTTNYADSVKGRFTISRDNAKNTVYLQMNSLKPEDTGVYYCAATPDPPHTYEYWGQGTQVTVSS | low polyreactivity
QVQLVESGVGLVQAGGSLSLSCAASGTFVLYAMGWYRQAPGKERELVAAISKTGRTYYADSVKGRFTISRDNAKNTVYLQMNSLKPEDTAVYYCAAQRFSKFGYWGQGTQVTVSS | high polyreactivity

Source: the nanobody polyreactivity screen of Harvey et al. (2022)
